Data published in the supplement of paper PMC10567573.
± gives the standard deviation.

Experiment: protein stability index of a GFP-peptide fusion (GPS, HEK-293T) (PSI 1-6); higher = more stable
Settings: c terminus: a fixed tail appended
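Note: 24-mer peptide tiles fused after GFP, lentivirally expressed, FACS-sorted into six equal bins by GFP/DsRed ratio, decoded by Illumina sequencing, PSI is the read-weighted mean bin number.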

Row | Sequence | protein stability index (treatment: DMSO) | protein stability index (treatment: MLN4924 1 uM, 8 h)
1 | RRPVNVPLDMFSEEIKFYELGEEA [KCNA1] | 3.62 ± 0.33 | 3.84 ± 0.17
2 | VHQRTHTGEKPHTCSECGKGFIQK [ZNF649] | 3.67 ± 0.28 | 3.52 ± 0.58
3 | HEEVYFEPSSSKDSDENSKPSVDT [MIA2] | 5.62 ± 0.33 | 5.48 ± 0.31
4 | EGYAHLTHLLMGLASGRIILILEG [HDAC6] | 2.91 ± 0.56 | 3.09 ± 0.041
5 | KNNLSFIETSALDSTNVEEAFKNI [RAB11B] | 4.33 ± 0.2 | 4.33 ± 0.3
6 | GQFVMKTRRTLKGHGNKVLCMDWC [GNB5] | 2.16 ± 0.32 | 2.32 ± 0.3
7 | ALEEADKMFLRTREPALDGGFQMH [EID1] | 3.75 ± 0.066 | 3.64 ± 0.42
8 | LDRDALKQSLVVAVQDHGQPPLSA [PCDHGA10] | 4.49 ± 0.19 | 4.678 ± 0.044
9 | QQTPVGTPKDKRVSNTPLRTVDGS [PALM] | 5.07 ± 0.13 | 5.03 ± 0.15
10 | DISERPSVDDIESETGSTGALETR [C2CD2L] | 5.56 ± 0.22 | 5.59 ± 0.34
11 | LGRELMLQLSEFLCEEFRNRNQRI [CPN1] | 2.31 ± 0.2 | 2.26 ± 0.26
12 | TCVVPFDSEEEVIERANNVKYGLA [ALDH8A1] | 4.29 ± 0.33 | 4.41 ± 0.23
13 | LMADLVADISEAEQRTIQAQKESL [APBB1IP] | 3.5 ± 0.56 | 3.6 ± 0.45
14 | GPPGRSIGGAAPSLGALDLLGPAT [SERTAD1] | 3.79 ± 0.14 | 3.81 ± 0.11
15 | MLPGRTDNAVKNHWNSTIKRKVDT [MYBL2] | 3.61 ± 0.17 | 4.09 ± 0.24
16 | ARYGHLDVVEYLVDRCGASVEAGG [FEM1A] | 2.81 ± 0.16 | 2.98 ± 0.43
17 | TLLAIGTKLPENQAIQMRLVDVAC [INTS4] | 2.12 ± 0.19 | 2.09 ± 0.15
18 | PRMCRYVRERDRLGNEYPKLHYPE [CDC25A] | 3.08 ± 0.12 | 3.15 ± 0.34
19 | DGNGGQFREVYVGKETMCTVDGLH [TRIM9] | 3.94 ± 0.37 | 4.11 ± 0.28
20 | IPKSSDPEMRWNKGTILKASVDYI [TFE3] | 2.79 ± 0.32 | 3.03 ± 0.26
21 | RFQAMEETHLRHMKALLGSYAHSV [FCHO1] | 2.38 ± 0.37 | 2.38 ± 0.31
22 | GNDRRREWAALGNMSKEDAMVEFV [ACBD3] | 4.11 ± 0.24 | 4.3 ± 0.26

Row | Sequence | protein stability index (treatment: DMSO) | protein stability index (treatment: MLN4924 1 uM, 8 h)
23 | LLGEPLAGPELDEMLREVDLNGDG [CABP4] | 5.18 ± 0.21 | 5.36 ± 0.21
24 | GLGPTSEPFPSSDDSPRSALAAAT [SPAG8] | 4.95 ± 0.19 | 5.18 ± 0.038
25 | VGGYGTRLRPLTLSTPKPLVDFCN [GMPPB] | 2.41 ± 0.16 | 2.46 ± 0.14
26 | PDTELKRYFGARAILGEQRPRQRQ [TCF25] | 4.25 ± 0.11 | 4.11 ± 0.18
27 | GFFDVLGNDRRREWAALGNMSKED [ACBD3] | 3.85 ± 0.44 | 4.551 ± 0.018
28 | TAKNSRVVCGMFGFPGERTYNTKV [LOXL2] | 2.6 ± 0.3 | 2.63 ± 0.067
29 | MNLELLESFGQNYPEEADGTLDCI [RBBP5] | 4.77 ± 0.25 | 4.89 ± 0.12
30 | DSTNVEEAFKNILTEIYRIVSQKQ [RAB11B] | 2.29 ± 0.2 | 2.49 ± 0.25
31 | ESGKSTIVKQMKIIHEAGYSEEEC [GNAI1] | 5.16 ± 0.18 | 4.85 ± 0.13
32 | ADIKQYIGPPSAAAIFKIYLSCLE [TRIP13] | 2.19 ± 0.4 | 2.27 ± 0.22
33 | IRLVDDAFGKICHMVSDGSWVVRV [INTS4] | 3.07 ± 0.46 | 2.98 ± 0.54
34 | LSTHNWTYWQCGQYLGVGPGAHGR [RSAD1] | 2.31 ± 0.21 | 1.99 ± 0.27
35 | NALSKSSAPPITPECRQVLKTSRK [CHGB] | 4.68 ± 0.22 | 4.77 ± 0.15
36 | ECQYYIDKLEYLDEKQRDPRIEAS [NET1] | 4.12 ± 0.13 | 4.04 ± 0.19
37 | AADIVNFLTVGSVLQMWHIVDKCT [ZBTB22] | 3.24 ± 0.88 | 3.65 ± 0.2
38 | YSHLGGIDYKTTTILLDGQRVKLK [RAB40A] | 3.12 ± 0.29 | 3.25 ± 0.23
39 | LDVRARLECEINTYRSLLESEDCK [KRT33B] | 4.23 ± 0.16 | 4.38 ± 0.25
40 | VSLSLENRELWKEFSSVGTEMIIT [TBX6] | 2.71 ± 0.62 | 2.31 ± 0.45
41 | SSRSTVPTPAKRRSSALWSEMLDI [NET1] | 2.62 ± 0.25 | 2.96 ± 0.46
42 | IDLATWNFQFLPQVNGHPDPFDEI [PTPN9] | 2.43 ± 0.22 | 2.54 ± 0.35
43 | RQDAKYLNMRSTYAKLAAVAVFFI [SEC22B] | 2.35 ± 0.4 | 2.15 ± 0.25
44 | PFYTSRIDEVLLHQDVDLVCINLP [GFOD1] | 2.08 ± 0.18 | 2.21 ± 0.35
